Molecular target: extracellular domain of the growth hormone receptor (human) (UniProt P10912)
Assay: competition ELISA, plate coated with GHR extracellular domain, inhibition of biotin-hGH binding

UniProt P10912, sequence (P10912 19-264): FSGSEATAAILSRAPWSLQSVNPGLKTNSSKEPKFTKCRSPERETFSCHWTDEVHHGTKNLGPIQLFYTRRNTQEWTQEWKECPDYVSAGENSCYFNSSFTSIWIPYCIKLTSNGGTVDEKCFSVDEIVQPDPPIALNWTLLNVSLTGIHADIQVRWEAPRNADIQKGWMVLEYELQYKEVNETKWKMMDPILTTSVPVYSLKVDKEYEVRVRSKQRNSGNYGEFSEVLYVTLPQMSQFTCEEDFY

An IC50 of 137 nM was found for pegvisomant (ligand) in this work.

Reference: patent US20250101076A1
